In US20020004214A1, “Method to detect modulators of histidine kinases” (priority 1999, published 2002):

Columns and labels:
MalE-EspB fusion protein = assay: EspB autophosphorylation gel electrophoresis assay; assay type: biochemical, Staphylococcus aureus; details: purified protein pretreated with 2 M or 0.5 M guanidine-HCl, then dialyzed; [γ-32P]ATP 30 minutes; vs protein not pretreated
Protocol: Enzyme autophosphorylation activity was assayed as described in Example 4 below. Samples containing equal amounts of purified MalE-EspB fusion that had either been treated or not with guanidine-HCl were incubated with [γ-^32P]ATP for 30 minutes, analyzed by polyacrylamide gel electrophoresis, and exposed to X-ray film. In FIG. 3 the bands show the autophosphorylated protein, and can be quantitated. Lanes 1 and 2 show the activity of purified protein samples that had not been pretreated with guanidine-HCl, whereas the protein samples inlanes 3 and 4 had been pretreated with 2 M and 0.5 M guanidine-HCl, respectively, and dialyzed afterwards against enzyme storage buffer. When the X-ray picture is greatly overexposed, the protein bands become also apparent on lanes 1 and 2. The experiment showes that pretreatment with guanidine-HCl activates MalE-EspB by approximately 40 to 100-fold, a likely consequence of denaturing and then refolding the purified MalE-EspB protein.
Volumes of 18.5 μl of compounds diluted in 6% DMSO or controls of 6% DMSO alone were mixed in a microcentrifuge tube with an equal volume of EspB reaction mixture (containing EspB at 0.58 mg/ml in a salt buffer of 328 mM Tris-HCl [pH 8.0], 225 mM KCl, 0.4 mM PMSF {phenylmethylsulfonyl fluoride}, 1.2 mM DTT, 0.2 mM EDTA, 9.3 mM MnCl2, and 10% glycerol). […]

[1] = target: T1, EspA cognate response regulator (UniProt Q5HJX7)
T1 sequence: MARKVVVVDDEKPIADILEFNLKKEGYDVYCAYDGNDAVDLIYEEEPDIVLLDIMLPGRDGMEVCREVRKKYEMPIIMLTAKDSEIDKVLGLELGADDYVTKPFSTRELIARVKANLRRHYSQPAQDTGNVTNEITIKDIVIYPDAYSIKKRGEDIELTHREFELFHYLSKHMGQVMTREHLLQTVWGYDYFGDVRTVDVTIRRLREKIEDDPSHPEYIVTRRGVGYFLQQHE

## Cl.N=C(N)N [guanidine-HCl, Guanidine-HCl]
MalE-EspB fusion protein
  activation of MalE-EspB autophosphorylation activity by pretreatment: 40 to 100 fold

## MalE-EspB fusion protein
[1]
  transphosphorylation of EspA by EspB without Ca++, [gamma-32P]ATP, SDS-PAGE and X-ray film: this transphosphorylation requires the presence of Ca^++ whereas autophosphorylation of EspB does not (absence of the EspA band in lane 5)
  transphosphorylation of EspA by EspB, [gamma-32P]ATP, SDS-PAGE and X-ray film: EspA is unable to autophosphorylate (lane 3), but that it can be transphosphorylated by its cognate HPK EspB (lane 2)
